In US20210395379A1 (NUMAB THERAPEUTICS, published 2021):

What was measured:
[1] = molecular target: T1, human CD137 expressed on Jurkat cells (human, UniProt Q07011 24-255); test: Flow cytometry on CD137 expressing Jurkat cells, detection with APC-labelled goat anti-human IgG
[2] = molecular target: T1, human CD137 expressed on Jurkat cells; test: flow cytometry on CD137 expressing Jurkat cells, detection with APC labelled protein L
Method: 50,000 CD137 expressing Jurkat cells (or as reference cell line Jurkat cells lacking CD137 expression) were distributed to round bottom non-tissue culture treated 96 well plates. Cells were washed twice with 100 μl PBS by centrifugation at 400×g for 5 min. […] After 1 h incubation at 4° C. on a nutating mixer, cells were washed 3 times with 100 μl staining buffer and centrifugation steps of 5 min at 400×g. […] Plates were incubated 1 h at 4° C. on a nutating mixer, then washed 3 times with 100 μl of staining buffer and resuspended in a final volume of 50 μl of staining buffer. Finally, APC signal of 20,000 events per well was analyzed by flow cytometry using a Novocyte flow cytometer system (ACEA Bioscience).

[3] = molecular target: T2, cynomolgus monkey Fc-tagged CD137 (R&D Systems, cat. 9324-4B-100) (cynomolgus monkey, UniProt A9YYE7 24-186); test: SPR (Biacore T200), cynomolgus Fc-tagged CD137 captured by anti-human Fc, scFv as analyte
T2 construct: also called cynomolgus CD137; CD137-Fc chimeric protein (cynomolgus); not shown: the Fc tag (and any linker) of the bought chimera (R&D Systems, cat. 9324-4B-100)
T2 sequence (A9YYE7 entry or part of it limits assumed): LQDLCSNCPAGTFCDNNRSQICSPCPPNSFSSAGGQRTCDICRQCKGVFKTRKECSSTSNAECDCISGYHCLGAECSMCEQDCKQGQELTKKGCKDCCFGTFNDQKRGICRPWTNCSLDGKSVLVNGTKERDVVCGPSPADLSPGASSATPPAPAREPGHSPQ
Method: (§1) In this experiment, Fc tagged human CD137 (R&D Systems, cat. 838-4B-100) was captured using the Human Antibody Capture kit from GE healthcare (cat. BR-1008-39). After each analyte injection cycle, the anti-human Fc-specific IgG was regenerated and new antigen was captured. The scFvs were injected as analyte using a dose response multi-cycle kinetic assay over the captured CD137 with concentrations of the analyte ranging from 0.19 to 45 nM (three-fold dilutions steps) diluted in running buffer. Association and dissociation time were set to 300 s and 720 s, respectively. The obtained sensorgrams were fitted using the 1:1 binding model.
Cross-reactivity to cynomolgus CD137 was measured with cynomolgus monkey Fc-tagged CD137 (R&D Systems, cat. 9324-4B-100) in a similar assay as used to measure binding to human CD137.

[4] = molecular target: T3, Fc tagged human CD137 (R&D Systems, cat. 838-4B-100) (human, UniProt Q07011 24-186); test: SPR (Biacore T200), Fc tagged human CD137 captured by anti-human Fc, scFv as analyte 0.19-45 nM
T3 construct: Bought Fc chimera; also called CD137 Fc chimera; human CD137 (tagged with Fc); not shown: Fc tag of the bought chimera
Method: as §1

[5] = molecular target: T4, human Fc-tagged CD40 (AcroBiosystems, cat. CD0-H5253) (human, UniProt P25942 21-193); test: SPR (Biacore T200), Fc-tagged CD40 captured by anti-human Fc, scFv as analyte
T4 construct: also called human CD40; not shown: Fc tag
T4 sequence (P25942 21-193 limits assumed): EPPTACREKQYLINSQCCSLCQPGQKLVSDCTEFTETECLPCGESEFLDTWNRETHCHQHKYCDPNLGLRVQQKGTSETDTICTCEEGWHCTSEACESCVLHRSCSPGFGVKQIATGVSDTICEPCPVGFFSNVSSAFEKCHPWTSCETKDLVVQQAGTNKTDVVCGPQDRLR
Method: (§2) Binding of scFvs to human Fc-tagged CD40 (AcroBiosystems, cat. CD0-H5253) and human Fc-tagged OX40 (Acro-Biosystems, cat. OX0-H5255) was determined by SPR analysis on a T200 device (Biacore, GE Healthcare). In this experiment, Fc-tagged CD40 and OX40 were captured using the Human Antibody Capture kit from GE healthcare (cat. BR-1008-39). After each analyte injection cycle, the anti-human Fc-specific IgG was regenerated and new antigen was captured. The scFvs were injected as analyte using a high concentration of 180 nM of the analyte diluted in running buffer. Association and dissociation time were set to 300 s and 720 s, respectively. Obtained sensorgrams were fitted using the 1:1 binding model.

[6] = molecular target: T5, human Fc-tagged OX40 (Acro-Biosystems, cat. OX0-H5255) (human, UniProt P43489 29-216); test: SPR (Biacore T200), Fc-tagged OX40 captured by anti-human Fc, scFv as analyte
T5 construct: also called human OX40; not shown: Fc tag
T5 sequence (looked up): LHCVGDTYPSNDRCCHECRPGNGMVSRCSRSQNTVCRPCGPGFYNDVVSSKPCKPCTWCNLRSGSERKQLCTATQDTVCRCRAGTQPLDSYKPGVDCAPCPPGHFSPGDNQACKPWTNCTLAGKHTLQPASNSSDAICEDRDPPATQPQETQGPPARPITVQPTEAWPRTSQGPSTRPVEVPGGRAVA
Method: as §2

Chain of urelumab (antibody) (VH): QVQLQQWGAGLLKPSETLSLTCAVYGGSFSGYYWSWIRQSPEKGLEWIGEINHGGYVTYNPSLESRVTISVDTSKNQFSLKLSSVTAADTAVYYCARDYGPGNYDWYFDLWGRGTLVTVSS
Chain of urelumab (antibody) (VL): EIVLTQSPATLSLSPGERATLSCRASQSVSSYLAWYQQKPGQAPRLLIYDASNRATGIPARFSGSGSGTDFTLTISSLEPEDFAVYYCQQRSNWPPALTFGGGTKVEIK

| Molecule | EC50 (read off the curve) [1] | EC50 [2] | Maximum binding (relative to urelumab) [2] | Kd [3] | koff [3] | kon [3] | koff [4] | kon [4] | binding result [5] | binding result [6] |
| --- | --- | --- | --- | --- | --- | --- | --- | --- | --- | --- |
| urelumab (antibody) | 0.06 µg/mL |  |  |  |  |  |  |  |  |  |
| PRO1359 (38-27-A11 sc02) (scFv, VL-linker-VH, CDR graft, Vk1/VH3; also called anti-4-1BB scFv) scFv: DIQMTQSPSSLSASVGDRVTITCQASQSISNRLAWYQQKPGKAPKLLIYSASTLASGVPSRFSGSGSGTDFTLTISSLQPEDFATYYCQSTYYGNDGNAFGTGTKVTVLGGGGGSGGGGSGGGGSGGGGSEVQLVESGGGLVQPGGSLRLSCAASGFSFSANYYPCWVRQAPGKGLEWIGCIYGGSSDITYDANWTKGRFTISRDNSKNTVYLQMNSLRAEDTAVYYCARSAWYSGWGGDLWGQGTLVTVSS |  | 3.99 µg/mL | 18% | 2.88 nM | 0.00267 s⁻¹ | 927000 M⁻¹ s⁻¹ | 0.00281 s⁻¹ | 866000 M⁻¹ s⁻¹ | no binding (tested: 180 nM) | no binding (tested: 180 nM) |
| PRO1360 (38-27-A11 sc03) (scFv, VL-linker-VH, full graft, Vk1/VH3) scFv: DFQLTQSPSSLSASVGDRVTITCQASQSISNRLAWYQQKPGKPPKLLIYSASTLASGVPSRFSGSGSGTDFTLTISSLQPEDFATYYCQSTYYGNDGNAFGTGTKVTVLGGGGGSGGGGSGGGGSGGGGSESQLVESGGGLVQPGGSLRLSCAASGFSFSANYYPCWVRQAPGKGLEWIGCIYGGSSDITYDANWTKGRFTISRDNSKNTVYLQMNSLRAEDTAVYFCARSAWYSGWGGDLWGPGTLVTVSS |  | 0.148 µg/mL | 29% | 0.24 nM | 0.000252 s⁻¹ | 1.05e+06 M⁻¹ s⁻¹ | 0.0003 s⁻¹ | 1.28e+06 M⁻¹ s⁻¹ | no binding (tested: 180 nM) | no binding (tested: 180 nM) |
